These results are taken from publication PMC3817407.

“And” between values parts separate entries of the source, which are not always exact repeats. Equal entries are not always repeated.

The target of assay [1] is T1, ECF11_3726.
T1 chain: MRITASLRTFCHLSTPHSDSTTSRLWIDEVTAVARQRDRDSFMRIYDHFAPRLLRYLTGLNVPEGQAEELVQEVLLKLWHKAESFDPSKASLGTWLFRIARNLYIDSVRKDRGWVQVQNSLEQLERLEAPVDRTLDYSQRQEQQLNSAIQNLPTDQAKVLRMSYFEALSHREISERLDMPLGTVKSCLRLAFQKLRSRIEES

For assay [2], the target named is T2, ECF17_1458.
T2 chain: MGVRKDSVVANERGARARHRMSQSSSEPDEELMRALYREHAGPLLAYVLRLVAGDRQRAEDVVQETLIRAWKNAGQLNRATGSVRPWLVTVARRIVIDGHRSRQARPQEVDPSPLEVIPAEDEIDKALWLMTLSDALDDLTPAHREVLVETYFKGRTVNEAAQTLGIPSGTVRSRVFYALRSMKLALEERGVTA

In assay [3] the target is T3, ECF20_992.
T3 chain: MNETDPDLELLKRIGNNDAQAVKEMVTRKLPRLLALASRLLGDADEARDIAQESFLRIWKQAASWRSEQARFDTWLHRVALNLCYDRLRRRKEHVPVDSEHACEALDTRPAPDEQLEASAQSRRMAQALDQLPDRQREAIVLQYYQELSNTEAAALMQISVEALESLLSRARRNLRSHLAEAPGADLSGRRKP

For assay [4], the target named is T4, ECF25_1643.
T4 chain: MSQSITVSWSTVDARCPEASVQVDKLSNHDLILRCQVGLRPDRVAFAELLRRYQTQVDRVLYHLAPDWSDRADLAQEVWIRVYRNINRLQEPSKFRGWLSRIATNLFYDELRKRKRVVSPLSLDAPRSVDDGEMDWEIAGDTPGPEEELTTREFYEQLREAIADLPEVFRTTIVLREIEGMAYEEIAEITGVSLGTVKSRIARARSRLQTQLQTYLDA

In assay [5] the target is ECF27_1331.
Assay [6] deals with T5, ECF31_34.
T5 chain: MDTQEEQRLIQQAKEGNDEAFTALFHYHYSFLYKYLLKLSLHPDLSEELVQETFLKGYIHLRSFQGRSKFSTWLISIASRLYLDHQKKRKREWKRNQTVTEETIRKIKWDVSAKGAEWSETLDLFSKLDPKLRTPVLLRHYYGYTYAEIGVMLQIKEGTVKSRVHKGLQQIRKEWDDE

Assay [7] deals with T6, ECF35_3582.
T6 chain: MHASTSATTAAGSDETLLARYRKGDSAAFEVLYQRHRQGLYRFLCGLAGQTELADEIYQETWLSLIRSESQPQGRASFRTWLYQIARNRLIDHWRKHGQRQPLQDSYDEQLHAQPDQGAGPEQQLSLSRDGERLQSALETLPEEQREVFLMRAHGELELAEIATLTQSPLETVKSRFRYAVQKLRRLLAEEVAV

B1: AS35_3582 (protein)
chain: MNPQKHSASVAEEQMLAHFRAHAPQQPAPALDQAILAAARRQAAHVEPARSWWRRWLEASRRPRWQAAFASLLGVALVLGLVSHNVLDDAERQARPEVAFSDVPLRDGVAGAAAAKRAMRAPAAPAPLSGEMSEPPALLASYASSGEAPQLMAEAAPPAPAALADRPPAQAAQQAKVQAALAGDFVAQARGKAVAVKPEVLDEALGAVLALREQGKTEQAATQLAELQKRFPGENLVERLERLATIAASARKRP
For the molecule B1, the fold repression in assay [1] is 18.8; in assay [2], 7.06; in assay [3], 3.26; in assay [4], 5.68 and 4.69; in assay [5], 7.23; in assay [6] it was 5.2. The fold repression in assay [7] was found to be 311.

B2: AS38_1322 (protein)
chain: MSDGNDARPDARDGHDPGSDARDGHDPGSHARDGHDPGAGPFDGHGPGSDAGDGDDAGPDARDGHGAPAGPAGREQRKHPHDTHDMHDTHDTHAGKGTVNHGPAAQGPDAPGADGPATDEAALRAMMQRAVREMEPSDGTLEHLRRAVPARRARKRQALVGAAAAALFLGTAVPALVHVSNATGAGADPSVAGNASQAQGGASQGKDPAGGQSGVAGTGDTPEDRDKADPKETPGGKEPGAATGAPPSGVPSASSPADVPACAPGSLGPAVASSAEPDSTGVVYGSFRVTNVSSDGCTVTGPGTVVTASLGAAEATRIGTARHAAGDAAAGLPDPSLETASLALAPGAAYEVQFAWVPSETCPTTGGTTGGGSGGPSPDPSPTADTTAAGGTSAGGGEAGPTTQLITEDGPAEGSVSVTYTPEGGSGSATATVSNACAGTVYWTGLLADSGSGA
Regarding B2, the fold repression was 11.2 in assay [1]; 4.75 in assay [2]; 3.28 in assay [3]; 4.12 and 4.01 in assay [4]; 5.61 in assay [5]; 4.78 in assay [6]. The molecule further gave a fold repression in assay [7] of 2.8.

B3: AS37_2513 (protein)
chain: MSSAPATKEEVDFALKVRRALDERAASLPDATTDRLAAARRAALARKKPDAAIVLVPALAGSAGTLELRPPGEPRKSLARRLARAWPLALLLAGLIGIAYWEDMQRTAELADIDAAMLSDNLPLTAYLDHGFNAYLSHTH
B3: the fold repression in assay [1] was 11.6; in assay [2] it was 5.87; in assay [3], 5.31; in assay [4] it was 5.22 and 5.59; in assay [5], 6.45; in assay [6], 3.08. Besides, the fold repression in assay [7] was determined as 2.62.
